We go through 25 molecules from patent US20080026996A1, “Selective Vpac2 Receptor Reptide Agonists” (ELI LILLY AND COMPANY, priority 2004, published 2008).

Holding throughout (test): cell-based or functional assay
In one assay the target is T1, rat VPAC2 receptor (rat, UniProt P35000 23-437).
T1 sequence (looked up): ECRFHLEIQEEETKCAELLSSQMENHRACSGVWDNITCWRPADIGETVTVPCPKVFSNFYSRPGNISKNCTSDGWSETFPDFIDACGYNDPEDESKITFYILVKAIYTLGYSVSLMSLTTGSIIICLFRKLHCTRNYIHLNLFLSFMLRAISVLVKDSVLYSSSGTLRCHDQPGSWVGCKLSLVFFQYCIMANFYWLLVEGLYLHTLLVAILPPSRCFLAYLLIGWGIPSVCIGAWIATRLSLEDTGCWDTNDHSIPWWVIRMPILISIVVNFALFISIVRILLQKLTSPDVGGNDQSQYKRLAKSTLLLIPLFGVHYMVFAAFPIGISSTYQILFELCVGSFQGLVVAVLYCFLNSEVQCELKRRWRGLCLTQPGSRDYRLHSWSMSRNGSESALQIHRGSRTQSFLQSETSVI

The next assay addresses T2, human VPAC2 receptor (human, UniProt P41587 24-438).
T2 sequence (looked up): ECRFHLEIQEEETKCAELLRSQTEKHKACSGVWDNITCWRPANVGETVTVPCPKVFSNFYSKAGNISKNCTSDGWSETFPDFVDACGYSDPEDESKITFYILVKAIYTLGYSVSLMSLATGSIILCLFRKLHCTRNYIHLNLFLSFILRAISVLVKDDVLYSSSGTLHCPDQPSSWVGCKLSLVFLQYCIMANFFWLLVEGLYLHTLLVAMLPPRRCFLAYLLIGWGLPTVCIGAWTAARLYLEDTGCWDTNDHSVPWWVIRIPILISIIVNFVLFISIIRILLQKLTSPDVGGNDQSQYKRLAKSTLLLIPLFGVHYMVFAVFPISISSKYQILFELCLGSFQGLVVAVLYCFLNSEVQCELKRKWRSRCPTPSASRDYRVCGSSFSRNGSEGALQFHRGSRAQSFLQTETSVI

The target of a further assay is T3, rat VPAC1 receptor (rat, UniProt P30083 31-459).
T3 sequence (looked up): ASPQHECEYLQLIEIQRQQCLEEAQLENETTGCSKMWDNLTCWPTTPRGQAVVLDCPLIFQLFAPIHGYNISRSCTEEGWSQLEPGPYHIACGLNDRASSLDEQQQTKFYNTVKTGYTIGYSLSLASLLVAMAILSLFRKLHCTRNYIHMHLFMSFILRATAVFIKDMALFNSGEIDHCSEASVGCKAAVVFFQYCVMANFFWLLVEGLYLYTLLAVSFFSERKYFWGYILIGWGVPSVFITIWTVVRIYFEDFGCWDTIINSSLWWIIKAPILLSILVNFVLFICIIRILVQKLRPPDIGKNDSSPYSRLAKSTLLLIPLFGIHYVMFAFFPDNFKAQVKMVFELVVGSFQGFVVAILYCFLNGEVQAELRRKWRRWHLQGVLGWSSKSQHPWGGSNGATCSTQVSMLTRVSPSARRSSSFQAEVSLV

Where no end group is shown, it is not given here. [ ]: non-standard residue; d: D form. The star is where a group is joined. Orn = NCCC[C@H](N)C(=O)O; Hexanoyl = CCCCCC(=O)*; Aib = CC(C)(N)C(=O)O

B1: P170 (peptide)
peptide: Hexanoyl-HSDAVFTDNYTRLRKQVAAK[Aib]YLQSIKNKRYGGPSSGAPPPS
modifications: ends and bridges not checked
Regarding B1, the “EC50 cAMP, DiscoveRx” value in the assay with rat VPAC2 receptor turned out to be 0.15 nM. Further, the “EC50 cAMP, Alpha Screen” value with human VPAC2 receptor was 0.18 nM.

B2: P251 (peptide)
peptide: Hexanoyl-HSDAVFTDNYTRLQKQVAAK[Aib]YLQSIKNKRYGGPSSGAPPPS
modifications: ends and bridges not checked
Consider B2, for which, in the assay with rat VPAC1 receptor, the “EC50 cAMP, DiscoveRx” value amounted to 212 nM. Besides, the “EC50 cAMP, Alpha Screen” value with human VPAC2 receptor worked out at 0.92 nM.

B3: P329 (peptide)
peptide: HSDAVFTDNYTXLRXQVAAXKYLQSIXNXGGPSSGAPPPS
modifications: N-terminal hexanoyl (C6); hR at 12, 27, 29; Aib at 15, 20
Take B3: the “EC50 cAMP, DiscoveRx” value with rat VPAC2 receptor was 0.15 nM.

B4: P344 (peptide)
peptide: HSDAVFTDNYTXLRXQVAAXKYLQSIKNKRYGGPSSGAPPPS
modifications: N-terminal hexanoyl (C6); Orn at 12; Aib at 15, 20
Regarding B4, the “EC50 cAMP, DiscoveRx” value with rat VPAC1 receptor is 1.56 nM. Besides, the “EC50 cAMP, Alpha Screen” value with human VPAC2 receptor was 0.13 nM.

B5: P346 (peptide)
peptide: Hexanoyl-HSDAVFTDNYTR[Aib]R[Aib]QVAA[Aib]KYLQSIKNKRYGGPSSGAPPPS
modifications: ends and bridges not checked
Take B5: the “EC50 cAMP, DiscoveRx” value with rat VPAC1 receptor was 3.02 nM. In the assay with human VPAC2 receptor, the “EC50 cAMP, Alpha Screen” value was found to be 0.23 nM.

B6: P168 (peptide)
peptide: Hexanoyl-HSDAVFTDNYTRLR[Aib]QVAAKKYLQSIKNKRYGGPSSGAPPPS
modifications: ends and bridges not checked
Regarding B6, the “EC50 cAMP, DiscoveRx” value in the assay with rat VPAC2 receptor is 0.05 nM. Further, the “EC50 cAMP, Alpha Screen” value with human VPAC2 receptor turned out to be 0.27 nM.

B7: P140 (peptide)
peptide: MHSDAVFTDNYTRLLAKLALQKYLQSIKNKRYGGPSSGAPPPS
modifications: N-terminal methionine added (M-)
With B7, the “EC50 cAMP, DiscoveRx” value with rat VPAC1 receptor came out at 5.81 nM. Further, the “EC50 cAMP, Alpha Screen” value with human VPAC2 receptor came out at 0.07 nM.

B8: P240 (peptide)
peptide: Hexanoyl-HSDAVFTDNYTRL[Aib]KQLAA[Aib]KYLQSIKNKRYGGPSSGAPPPS
modifications: ends and bridges not checked
As for B8, the figures for the “EC50 cAMP, DiscoveRx” value in the assay with rat VPAC2 receptor and in the assay with rat VPAC1 receptor were 0.36 nM and 24.5 nM, respectively. Besides, the “EC50 cAMP, Alpha Screen” value in the assay with human VPAC2 receptor was found to be 0.51 nM.

B9: P242 (peptide)
peptide: Hexanoyl-HSDAVFTDNYTRL[Aib]KQVAA[Aib]KYLQSIKNKRYGGPSSGAPPPS
modifications: ends and bridges not checked
As for B9, the results for the “EC50 cAMP, DiscoveRx” value in the assay with rat VPAC2 receptor and with rat VPAC1 receptor were 0.46 nM and 72.2 nM, respectively. Also, the “EC50 cAMP, Alpha Screen” value in the assay with human VPAC2 receptor was 0.8 nM.

B10: P241 (peptide)
peptide: Hexanoyl-HSDAVFTDNYTRL[Aib]KQLAAK[Aib]YLQSIKNKRYGGPSSGAPPPS
modifications: ends and bridges not checked
Consider B10, for which the “EC50 cAMP, DiscoveRx” value with rat VPAC1 receptor amounted to 61.1 nM. The “EC50 cAMP, Alpha Screen” value in the assay with human VPAC2 receptor stood at 2.17 nM.

B11: P244 (peptide)
peptide: Hexanoyl-HSDAVFTDNYTRL[Aib]KQVAAK[Aib]YLQSIKNKRYGGPSSGAPPPS
modifications: ends and bridges not checked
With B11, the “EC50 cAMP, DiscoveRx” value in the assay with rat VPAC2 receptor turned out to be 1.85 nM; with rat VPAC1 receptor, 127 nM. The “EC50 cAMP, Alpha Screen” value with human VPAC2 receptor is 2.03 nM.

B12: P342 (peptide)
peptide: Hexanoyl-HSDAVFTDNYTRLR[Aib]QVAA[Aib][Orn]YLQSIKNKRYGGPSSGAPPPS
modifications: ends and bridges not checked
B12: the “EC50 cAMP, DiscoveRx” value with rat VPAC1 receptor is 2.39 nM. The “EC50 cAMP, Alpha Screen” value with human VPAC2 receptor turned out to be 0.21 nM.

B13: P135 (peptide)
peptide: Hexanoyl-HSDAVFTDNYTRLLAKVAAKKYLQSIKNKRYGGPSSGAPPPS
For the molecule B13, the “EC50 cAMP, DiscoveRx” value with rat VPAC2 receptor worked out at 0.05 nM. The “EC50 cAMP, Alpha Screen” value in the assay with human VPAC2 receptor came to 0.18 nM.

B14: P222 (peptide)
peptide: Hexanoyl-HGEGTFTDNYTRLRKQVAAKKYLQSIKNKRYGGPSSGAPPPS
As for B14, the results for the “EC50 cAMP, DiscoveRx” value with rat VPAC2 receptor and with rat VPAC1 receptor were 34.9 nM and 43.9 nM, respectively. In the assay with human VPAC2 receptor, the “EC50 cAMP, Alpha Screen” value was 0.51 nM.

B15: P177 (peptide)
peptide: Hexanoyl-HSDAVFTDNYTRLRQQVAAKKYLQSIKNKRYGGPSSGAPPPS
Take B15: in the assay with rat VPAC2 receptor, the “EC50 cAMP, DiscoveRx” value is 0.1 nM. The “EC50 cAMP, Alpha Screen” value with human VPAC2 receptor was determined as 0.21 nM.

B16: P150 (peptide)
peptide: Hexanoyl-HSDAVFTDNYTRLRKQVAAQKYLQSIKNKRYGGPSSGAPPPS
In the case of B16, the “EC50 cAMP, DiscoveRx” value with rat VPAC2 receptor came out at 0.1 nM. Besides, the “EC50 cAMP, Alpha Screen” value with human VPAC2 receptor amounted to 0.18 nM.

B17: P172 (peptide)
peptide: Hexanoyl-HSDAVFTDNYTRLQKQVAAKKYLQSIKNKRYGGPSSGAPPPS
For the molecule B17, in the assay with rat VPAC2 receptor, the “EC50 cAMP, DiscoveRx” value stood at 0.11 nM. The “EC50 cAMP, Alpha Screen” value in the assay with human VPAC2 receptor was determined as 0.29 nM.

B18: P291 (peptide)
peptide: Hexanoyl-HSDAVFTDNYTRLR[Aib]QLAA[Aib]KYLQSIKNKRYGGPSSGAPPPS
modifications: ends and bridges not checked
On to B18, for which the “EC50 cAMP, DiscoveRx” value with rat VPAC1 receptor turned out to be 1.12 nM. Besides, the “EC50 cAMP, Alpha Screen” value in the assay with human VPAC2 receptor is 0.36 nM.

B19: P270 (peptide)
peptide: Hexanoyl-HSDAVFTDNYTRLRKQVAAKKYLQSIKQKGGPSSGAPPPS
As for B19, the “EC50 cAMP, DiscoveRx” value with rat VPAC1 receptor was determined as 0.67 nM. Further, the “EC50 cAMP, Alpha Screen” value in the assay with human VPAC2 receptor amounted to 0.13 nM.

B20: P335 (peptide)
peptide: HSDAVFTDNYTXLRXQVAAXKYLQSIXXGGPSSGAPPPS
modifications: N-terminal hexanoyl (C6); Orn at 12; Aib at 15, 20; hR at 27, 28
For B20, the “EC50 cAMP, DiscoveRx” value with rat VPAC2 receptor was 0.05 nM. Also, the “EC50 cAMP, Alpha Screen” value in the assay with human VPAC2 receptor worked out at 0.22 nM.

B21: P121 (peptide)
peptide: Hexanoyl-HSDAVFTDNYTRLRKQVAAKKYLQSIKNKKGGPSSGAPPPS
For B21, in the assay with rat VPAC1 receptor, the “EC50 cAMP, DiscoveRx” value was found to be 0.66 nM. In addition, the “EC50 cAMP, Alpha Screen” value with human VPAC2 receptor turned out to be 0.1 nM.

B22: P143 (peptide)
peptide: Hexanoyl-HSDAVFTDNYTRLRKQMAAQKYLNQLKKGGPSSGAPPPS
With B22, the “EC50 cAMP, DiscoveRx” value in the assay with rat VPAC1 receptor came to 3.81 nM. Besides, the “EC50 cAMP, Alpha Screen” value with human VPAC2 receptor is 0.1 nM.

B23: P167 (peptide)
peptide: Hexanoyl-HSDAVFTDNYTRL[Aib]KQVAAKKYLQSIKNKRYGGPSSGAPPPS
modifications: ends and bridges not checked
For the molecule B23, the entries for the “EC50 cAMP, DiscoveRx” value in the assay with rat VPAC2 receptor and with rat VPAC1 receptor were 0.24 nM and 6.88 nM, respectively. The “EC50 cAMP, Alpha Screen” value with human VPAC2 receptor was 0.17 nM.

B24: P243 (peptide)
peptide: Hexanoyl-HSDAVFTDNYTRL[Aib]KQVAAQKYLQSIKNKRYGGPSSGAPPPS
modifications: ends and bridges not checked
As to B24, the “EC50 cAMP, DiscoveRx” value in the assay with rat VPAC2 receptor stood at 0.79 nM; with rat VPAC1 receptor, 157 nM. For the same molecule, the “EC50 cAMP, Alpha Screen” value with human VPAC2 receptor is 0.28 nM.

B25: P154 (peptide)
peptide: Hexanoyl-HSDAVFTDNYTRLRKQVAAKKYLQSIKNGGPSSGAPPPS
On to B25, for which the “EC50 cAMP, DiscoveRx” value in the assay with rat VPAC1 receptor came out at 0.85 nM. The “EC50 cAMP, Alpha Screen” value in the assay with human VPAC2 receptor came out at 0.18 nM.
